For data set [1], the target named is T1, CELF1 T187 (RRM1-RRM2) (Xenopus, UniProt O57406 1-187). As to the kind of experiment: NMR titration.
For data set [2], the target named is T2, CELF1 RRM1 (Xenopus, UniProt O57406 1-101). Briefly: gel filtration.
The target in another data set is CELF1 RRM2 (Xenopus, UniProt O57406 108-187). Briefly: gel filtration. In general terms: SEC sorts molecules by how far they enter the pores of the column.
The target in data set [3] is T1, CELF1 T187 (RRM1-RRM2). As to the kind of experiment: gel filtration.
Data set [4] concerns the target T1, CELF1 T187 (RRM1-RRM2). Briefly: EMSA.
Data set [5] deals with T2, CELF1 RRM1. Briefly: NMR titration.
Data set [6] deals with T1, CELF1 T187 (RRM1-RRM2). Briefly: ESI-MS.
For data set [7], the target named is T1, CELF1 T187 (RRM1-RRM2). Briefly: gel filtration. This is another data set of the same source.
In data set [8] the target is T1, CELF1 T187 (RRM1-RRM2). Briefly: gel filtration. This is another data set of the same source.
The target of data set [9] is T2, CELF1 RRM1. Briefly: gel filtration. The source holds these as a separate data set.
The target of data set [10] is T1, CELF1 T187 (RRM1-RRM2). Briefly: EMSA. The source holds these as a separate data set. A general note: Mobility shift assays separate free from complexed probe on a gel.
The target of data set [11] is T1, CELF1 T187 (RRM1-RRM2). As to the kind of experiment: ITC. (In general: ITC needs no label: the signal is the heat of the interaction.)
Data set [12] has as its target T2, CELF1 RRM1. Briefly: ESI-MS.
The target of data set [13] is T1, CELF1 T187 (RRM1-RRM2). Briefly: gel filtration. This is another data set of the same source.

T1 sequence (O57406 1-187): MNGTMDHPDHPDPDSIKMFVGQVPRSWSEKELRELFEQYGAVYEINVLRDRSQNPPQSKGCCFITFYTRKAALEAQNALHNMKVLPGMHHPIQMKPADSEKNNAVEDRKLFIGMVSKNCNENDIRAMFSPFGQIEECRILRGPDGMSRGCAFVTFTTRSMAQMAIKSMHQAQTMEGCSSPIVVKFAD
T2 sequence (O57406 1-101): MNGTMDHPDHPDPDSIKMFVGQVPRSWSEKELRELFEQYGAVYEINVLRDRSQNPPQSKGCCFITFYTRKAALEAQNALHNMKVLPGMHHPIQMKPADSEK
Chain of CELF1 RRM2 (O57406 108-187): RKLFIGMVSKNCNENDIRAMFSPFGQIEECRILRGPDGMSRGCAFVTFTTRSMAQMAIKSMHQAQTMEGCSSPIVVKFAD

For the molecule UGUUUUUGU (ssRNA) [EDEN3U (x=3)], in the data set with CELF1 T187 (RRM1-RRM2) [1], the binding result was “binds”. As for UAUUUAU (ssRNA) [ARE7], the binding result in the data set with CELF1 RRM1 [2], in the data set with CELF1 RRM2 and in the data set with CELF1 T187 (RRM1-RRM2) [3] was “no binding” throughout.

As to UGUCUGUCUGUCUGU (ssRNA) [GUCU15], the binding result with CELF1 T187 (RRM1-RRM2) [4] is “binds”. As to CUGCUG (ssRNA) [CUG2], the binding result with CELF1 RRM1 [5] was “binds”.

For UGUUUGUUUGU (ssRNA) [EDEN11 (GRE)], the binding result with CELF1 T187 (RRM1-RRM2) [6] is reported as “binds”. On to CUGCUGCUGCUGCUG (ssRNA) [CUG15], for which the binding result with CELF1 T187 (RRM1-RRM2) [7] is given as “binds”. For the molecule UGUUUGUUUGUUUGU (ssRNA) [EDEN15], the binding result with CELF1 T187 (RRM1-RRM2) [8] is “binds”.

UGUUUAU (ssRNA) [EDEN7m]: in the data set with CELF1 RRM1 [9], the binding result is “binds”.

For the molecule UAUUUAUUUAUUUAU (ssRNA) [ARE15], the binding result in the data set with CELF1 T187 (RRM1-RRM2) [10] was “no binding”.

Regarding UGU (ssRNA), in the data set with CELF1 T187 (RRM1-RRM2) [11], binding was put at a Kd of 64 ± 2 µM.

Consider UUGUUUGUU (ssRNA) [EDEN9], for which the binding result with CELF1 RRM1 [12] is listed as “binds”. Take UGUGUGUGUGUGUGU (ssRNA) [UG15 (GU15 in text)]: the binding result with CELF1 T187 (RRM1-RRM2) [13] is given as “binds”.

Values taken from PMC3201864.
